The values below come from the nanobody polyreactivity screen of Harvey et al. (2022).

The nature of this data set: yeast display, Sf9 membrane polyspecificity reagent, FACS + sequencing; frameworks hold sequencing errors. In a few lines:
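Genes from sorted yeast were amplified by colony PCR, read by MiSeq 2 × 250 sequencing and filtered on CDR length. These cells carried a synthetic nanobody library in Saccharomyces cerevisiae BJ5465 and were sorted by FACS into low and high (top ~1%) gates on anti-HA and streptavidin fluorescence. Polyreactivity is labelled according to the gate of origin.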
For “QVQLVESGGGLVQPGGSLRLSCAASGRTFTKNAMGWYRQAPGKERELVAAISISGGSTYYADSVKGRFTISRDNAKNTVYLLMNSLKPEDTAVYYCAADVVTYLSYTLDYWGQGTQVTVSS”, the “polyreactivity (PSR sort gate)” value is on record as “low polyreactivity”.

As for “QVQLVESGGGLVQAGGSLRLSCAASGSTFLTYDMGWYRQAPGKERELVAAISGGGSTNYADSVKGRFTISRDNAKNTFYLQMNSLKPVDTAVYYCAAKASGNFYYYWGQGTQVTVSS”, the “polyreactivity (PSR sort gate)” value is listed as “high polyreactivity”.

On to “QVQLVESGGGLVQAGGSLRLSCAASGYIFYGYAMGWYRQAPGKERELVAAITGDGASTNYADSVKGRFTISRDNAKNTVYLQMNSLKPEDTAVYYCNAGRESDDVYEGSQRIGQFDYWGQGTQVTVSS”, for which the “polyreactivity (PSR sort gate)” value is “low polyreactivity”.

As for “QVQLVESGGGIVQAGGSLRLSCAASGFIFVANAMGRYRQAPGKERQLVAAISGSGGSTFYADSVKGRFTISRDNAKNTVNLQMNSLKPEDTAGYYCNADAYDYSGYFEYDCWGQGTQETVSS”, the “polyreactivity (PSR sort gate)” value is on record as “high polyreactivity”.

As for “QVQLVESGGGLVQAVGRLRLSCAASGLTFQYYAMGWYRQAPGKERELDAAISRSGGRSYYADSVKGRFTISRDNAKYTVYLQMISLKPEDSAVSYCNAVRRFASPTRHYYWGQGTQVTVSS”, the “polyreactivity (PSR sort gate)” value is “high polyreactivity”.

As for “QVQLVESGGGLVQAGGSLRLSCAASGIIFSPYAMGWYRQAPGKERELVAAISYSGGSTYYADSVKGRFTITRDNAKNTVYLQMNSLKPEDTAVYYCAVVYSYYLAVLGYWDYDYWGQGTQVTVSS”, the “polyreactivity (PSR sort gate)” value was “low polyreactivity”.

“QDQLEESGGGLVQAGGSLRLICAAYGSTFVLYDMGWYRQEPGKERELVADISYSGGSTYYEDSVKGRFTISRDNAKYTVYLLMKRLIPEDTAFYYCIAGVLVLLYAYLPSELEYWGQGTQVTVSS”: the “polyreactivity (PSR sort gate)” value is “low polyreactivity”.

Turning to “QVQLVESGGGLVQAGGSLRLSCAASGSIFYRNAMGWYRQTPGKERELVAAISSDGSTNYADSVKGRFTFSLDNAKNTVYLQMNRLNPEYTAVYYCAAPWTQFLDYWGQGTQVTVSS”, the “polyreactivity (PSR sort gate)” value is reported as “low polyreactivity”.

As to “QVQLVESGGGLVQAGGSLRLICAASGSIFYIYAMGWYRQAPGKERELVAVIDNSGSTNYADSVKGRFTISRDNAKNTVYLLINSLKPEDTADYYCLKLWLWASYLYDYWGQGTQVTVSS”, the “polyreactivity (PSR sort gate)” value was “low polyreactivity”.

On to “QVQLVESGGGLVQAGGSLRLSCAASGFTFTGNAMGWYRQAPGKERELVAAISRSGGSTFYADSVKGRFTISRDNAKNTVYLQMNSLKPEDTAVYYCAARRRTLNYLYDYWGQGTQVTVSS”, for which the “polyreactivity (PSR sort gate)” value is on record as “high polyreactivity”.

For “QVQLVESGGGLVQAGGSRRLSCAASGSTFARYPMGWYRQAPGKERELVATITRGGSTNYADSVKGRFTISRDNAKNTVYLQMNSLKPEDTAVYYCNARCGRSPYGYGDYYWGQGTQVTVSS”, the “polyreactivity (PSR sort gate)” value is recorded as “high polyreactivity”.

As for “QVQLVESGGGLVQAGGSLRLSCAASGSTLRYYAMGWYRQAPGKETEFVAAITASGVTTYYADSVKGRFTISRDNAKNTVYLQMNSLKPEDTAVYYCAARLYYNYRDRYNYWGQGTQVTVSS”, the “polyreactivity (PSR sort gate)” value was “high polyreactivity”.

Consider “QVQLVESGGGLVQAGGSLRLSCDASGSTLVVNAMGWYRPAPGKERELVAAISDGGSTNYADSVKGRFTISRDNAMNTVYLQMNSLKPEDTADYYCAKDCETEVIDDYWGQGTQVTVSS”, for which the “polyreactivity (PSR sort gate)” value is given as “low polyreactivity”.

Take “QVQLVESGGGLVQAGGSLGLSCAASGRSLIWYAMGWYRQAPGKERELVAAITSGGRTYYADSVKGRFTISRDNAKKTVYLQMNSLKPEDTAVYYCNKVGRDPGRDFWGQGTQVPVSS”: the “polyreactivity (PSR sort gate)” value is “high polyreactivity”.

Turning to “QVQLVESGGGLVQAGGSLRLSCAASGITIRYNAMGWYRQAPGKERELVAAISRGGDRTYYADSVKGRFTISRDNAKNTVYLQMNSLKPEDTAVYYCAADWSEKYEYWGQGTQVTVSS”, the “polyreactivity (PSR sort gate)” value is listed as “high polyreactivity”.

Take “QVQLVESGGGLVQAGGSLRLSCAASGSTFPRYAMGWYRQAPGKERELVAAMSSSGGRTYYADSVKGRFTISRDNAKNTVYLQMNSLKPEDTAVYYCAARAFKTIIYDYWGQGTQVTVSS”: the “polyreactivity (PSR sort gate)” value is reported as “high polyreactivity”.

Consider “QVQLVESGGGLVQAGGSLRLSCAASGSTFVDNAMGWCRQAPGKERELVADISSGGSTYYADSVKGRFTISRDNAKNTVYLQMNSLKPEDTAVYYCAARGVYRRGKYNSWGQGTQVTVSS”, for which the “polyreactivity (PSR sort gate)” value is listed as “high polyreactivity”.

On to “QVQLVESGGGLVQAGGSLRLSCAASGITFYSYTMGWYRQAPGKERELVAAISDNGGRTFYADSVKGRFTISRDNAKNTVYLQMNSLKPEDTAVDYCAADYSYYTSFRYDYWGQGTQVTVSS”, for which the “polyreactivity (PSR sort gate)” value was “low polyreactivity”.

With “QVLLVEAGGGLVQAGGSLRLSCAASGRIFRRYAMGWYRQAPGKERELVAAISSGGGSTYYADSVKGRFTISRDNAKNTVYLQMNSLKPEDTAVYYCNTDFYYDDVSQAHDYWGQGTQVTVSS”, the “polyreactivity (PSR sort gate)” value was “high polyreactivity”.

On to “QVQLVESVGGLVQAGGSLRLSCAASALTFQNNAMGWYRQAPGKEREFVATITSVGRTNYADSVKGRFTISRDNAKNTVYLQMNSLNPEDTAVYYCAASKARWPRGGSKYYYWGQGTQVTVSS”, for which the “polyreactivity (PSR sort gate)” value is given as “high polyreactivity”.

For the sequence “QVQLVESCGGLVQAGGILRLSCADYGSIFYYNAMGWYRQAPGKERQLVAAITRSGSTNYAESVKLRFTISRDNAKNTVYLQMNSLKPEDTAVYYCAAPWRGSVFRYYSWGQGTQVTVSS”, the “polyreactivity (PSR sort gate)” value was “low polyreactivity”.

Turning to “QVQLVESGGGLVQAGGSLRLSCAASGRTFAYYAMGWYRQAPGKERELVAAISSGGGSTYYADSVKGRFTISRDNAKNTVYLQMNRLKPEDTSVYYCNKGFEFWGQGTQVTVSS”, the “polyreactivity (PSR sort gate)” value is “high polyreactivity”.

On to “QVQLVESGGGLVHAGGSHRLSCAASGLIFRRNPMGWYRQAPGKERELVAAISRTGGSTYYADSVKGSFTISRDNAKNTFYLQMNSMKPEYTAVYYCASDNRDYDYTYEYWGQGTQVTVSS”, for which the “polyreactivity (PSR sort gate)” value is reported as “low polyreactivity”.

Turning to “QVQLVDSGGGLVQAGGSLRLSCAASGFIFVGYGMGWYRQAPGKERELVAAIDGGGSTYYADSVKGRFTISRDNAKNTVYLQMNSLKPEDTAVYYCNALPAYGWYDYDYWGQGTQVTVSS”, the “polyreactivity (PSR sort gate)” value is “low polyreactivity”.

“QVQLVESGGGLVQAGGSLRLSCAASGSIFYFNAMGWYRQAPGKERELVAAITASGGRTYYADSVKGRFTISRDNAKNTVYLQMNSLKPEDTAVYYCNAYRPWSWWGEMDYWGQGTQVTVSS”: the “polyreactivity (PSR sort gate)” value is listed as “high polyreactivity”.

With “QVQLVESGGGLVQAGGSLRLSCAASGRILEGYAMGWYRQAPGKERELVAAISFSTTTTYYADSVKGRFTISRDNAKNTVYLQMNSLKPEDTAVYYCAADSQQSDYDYWGQGTQVTVSS”, the “polyreactivity (PSR sort gate)” value is listed as “high polyreactivity”.

Regarding “QVQLVESGGGLVQAGGSLRLSCAASGRIFTRYAMGWYRPSPGKERELVAAISRNGGGTYYAESVKGRFTISRDNAKNTVYLQMNSLKPEDTAVYYCNAESTFVWGSYVRYDYWGQGTQVTVSS”, the “polyreactivity (PSR sort gate)” value was “low polyreactivity”.

For the sequence “QVQLVESGGGLVQAGGSLRLSCAASGGIFSGYAMGWYRQAPGKARELVAAISRRGTRTYYADSVKGRFTISRDNAKNTVDLQKNSLTPEDTAVYYCNAELDSLGTYDYWGQGTQVTVSS”, the “polyreactivity (PSR sort gate)” value was “high polyreactivity”.

On to “QVQLVETGGGLVQAGGSLGLSCAASGRTFGVNAMGWYRQAPGKERELVAAITRGGNTYYADSVKGRFTISRDNAKNTVYLQMNSLKPEDTAVYYCAATGWLRIDRPYTYTYGYWGQGTQVTVSS”, for which the “polyreactivity (PSR sort gate)” value is on record as “high polyreactivity”.

With “QDQLVESGGGLVQAGGSLRLSCAASGFTIDPYAMGWYRPAPGKERELVAGISWSGGSTYYADSVKGRFTISRDNAKNTVYLQMNSLKPEVTAVYYCARDYSWLTRGSDYDYWGQGTQVTVSS”, the “polyreactivity (PSR sort gate)” value is recorded as “low polyreactivity”.

On to “QVQLVESGGGLVQAGGSLRISCAASGRIFYENTMGWYRQAPGKETELVAVITSTGNTNYADSVKGRFTISRDNAKNTVYLQMNSLKPEVTAVYYCAADSPPGGYVFPERPYDYWGQGTQVTVSS”, for which the “polyreactivity (PSR sort gate)” value is on record as “low polyreactivity”.

“QVQLVESGGGLVQAGGSLRLSCAASGSTFEYNAMGWYRQAPGKERELVASSTNYADSVKGRFTISRDNAKNTVYLQMNSLKPEDTAVYYCAKTYWYPYGYWGQGTQVTVSS”: the “polyreactivity (PSR sort gate)” value was “low polyreactivity”.

Take “QVQLVESGGGLVQAGGSLRLSCAASVRTFYYYAMGWYRQAPGKERELVAAIRWSTGSTYYADSVKGRFTISRDNAQNTVYLQMNSLKPEDTAVYYCAADTWYIQWGYYWGQGTQVTVSS”: the “polyreactivity (PSR sort gate)” value is reported as “low polyreactivity”.

Regarding “QVQLVESGGGLVQAGGSLRLSCAASGFTFGQYAMGWYRQAPGKERELVAAIRWSGGSSYYADSVKGRFTISRDNAKNTVYLQMNSLKPEDTAVYYCAARRFDGYEYDYWGQGTQVTVSS”, the “polyreactivity (PSR sort gate)” value is listed as “low polyreactivity”.

As for “QVQLVESGGGLVQAGGSLRLSCAASGRTFSGYAMGWYRQAPGKERELVAGINWSGDSTYYADSVKGRFTISRDNAKNTVYLQMNSLKPEDTAVYYCAASRSGTYDWGQGTQVTVSS”, the “polyreactivity (PSR sort gate)” value is given as “high polyreactivity”.

Turning to “QVQLVESGGGLVQAGGSLRLSCAASGSIFYLYAMGWYRQAPGKERELVADINWNGGTYYADSVKGRFTISRDNAKNTVYLQMNSLKPEDTAVYYCAAYYYPYEYDYWGQGTQVTVSS”, the “polyreactivity (PSR sort gate)” value is reported as “high polyreactivity”.

For the sequence “KVQLVESGGGLFQAVGSLRLSCADSGRTLGGYAMGWYRQAPGKDRELVAAITSDTGTNYADSVKGRFTISRDNAKNTVYLQMNSLKPEDTAVYYCAAERFYEYDYWGQGTQVTVSS”, the “polyreactivity (PSR sort gate)” value is “low polyreactivity”.

As to “QVQLVDSGGGLVQAGGSLRLSCAASGNIICGYARGRNIQAPGKEREMVASISQRGGITYYADSVKGRFTISRDKAKNTVYLEMNSLKAEDTEVYYCAKRGTYGWYGAYDYWGEGTQVTVSS”, the “polyreactivity (PSR sort gate)” value was “low polyreactivity”.

“QVHLVESGGGLVQAGGSLRLSCAASGITFAWYAMGRYRQAPGKERELVAAITRGGGSTYYADSVKGRFTISRDNAKNTGYLQMNSLKPEDTAVYYCAARPYSYPYGYWGQGTQVTVSS”: the “polyreactivity (PSR sort gate)” value is “low polyreactivity”.

Consider “QVQLVESGGGLVQAGGSLRLSCAASGFTFGFYAMGWYRQAPGKERELVAAISGSGGRTYYADSVKGRFTISRDNAKNTVYLQMNSLKPEDTAVYYCAARWQRKSNGDEDYWGQGTQVTVSS”, for which the “polyreactivity (PSR sort gate)” value is reported as “high polyreactivity”.

As for “QVQLVESGGGLVQAGGSLRLSCAASGRTFAYYTMGWYRQAPGKERELVAAISWIGGSTYYADSVKGRFTISRDNAKNTVYLQMNSLKPEDTAVYYCNAVGLHWWPGDYWGQGTQVTVSS”, the “polyreactivity (PSR sort gate)” value was “low polyreactivity”.
